Data on 18 sequences can be found in the DeepSol protein solubility set.

The data set in a line: soluble on expression in E. coli; label from the status in PepcDB or PDB records.
For the sequence “MRQVDFSPFYRSTVGFDHLFNWFDSRTQPDDVSSYPPYNIERLSEDSYRISMAVAGFSQDEIDIETHCNQLIVRGERKPENDDEEREFLYRGIASRAFERRFHLADHVKVIGAELGDGLLHIQLKREMPAELKPKKIVVQASSSAVKNGNDHAVRKVSLENERTE”, the “soluble on expression in E. coli” value is given as “not soluble”.
Next, “MGSDKIHHHHHHMTKLYEPFYRLTIELTECEREIIGSRPFKRLAHLHHYGAAALRTPVTHSRYEHTIGVWSLTAHFFPSDQLLRLVALLHDIGHLPFSHAVEQPLGFNHHLLTERLIESQEVAKILKKHGFIPQDVIRRLNENTPVSNQEKLLSLDHLDSFLRDTTLAGTCSLIPHESLGRLSVRGNGIETDEETALLLASCIVKDHELFLDPFNLAMDALLAEAITLYMADKPLVSMENIPHMTDDEVLTLLRGSWNKKVHAHLKLLFSQQPTLVQTDDESSAKLTVTVRKVYEDRPLIRHGTAKGREMVEKKLAELQELKGRFSFVY”: “not soluble”; “MAHHHHHHMASEEPLNEIPGECPTPGDLGHAGWDVLHTAGAVYPYKPSPLQQEAFRSFLYSWSHVYACSHCSYHMRRYLKRNPPVVTDKLALNRYLCEFHNTVNKNIAKPVYNCDPMVVLRRWHPTFPDMEDQPTIEEQIAEQRRLEQAEAQKQKEKELQQKQVQTSSLGDMKASRERLVGRWRSEKSESHEYANNNPSSVGAFATGWSASSRQHENAGDAAAKSAPAPLAESREKRWWIFGKNGSGDKNAGFSSTTGTPSKVNSSGGGSNSGGMNGSLDDDEASVMAILKRLKACMVYCPDKDEKSNSA”: “not soluble”; “MAKKKIVAVIQARMGSSRLPGKVLMTVAGKPLLEHIIDRLRRSRTLDDIVIATSDKPCDDPLVDFAQTRGVTLVRGSEDNVLLRFNKAAEEVDADVIIRVTGDAPLVDPEVMDRLVRTLLQEGAEYCTIEAGINSIHEGFCTFTRGALKRLMTEAPDDPVAIEHVTAYFIAHPDKFHIARIPVGNEHRFKGARLSVDTPADVQFFDELYRLLGVPAGDADIADVVRLLRNNPHLLQINQHVYQKKATDRSHKVLIRCDGDSRTGLGHVVRCLALAGELREKQGCGIIFAMASGEPGMKMVRQADFPLERQEDADEGEWMDGLISRHHPDVLILDIRNDLPVEKVDSWREDGILVVGIDDPTPRRLAADLLFYPPIPQISELNWNNFNGEICSGWEWVLLRKQFCAPCPPRNNNPPALLLTMGGSDPANFTVRVLRVLDELQNDFETIVVIGAGFVHEEDLQQFLSQARRHYRIEREVSDMASLMRQADLAIASFGVTAYELAASGVPAVYLCLTPDHARSASKFVDDRLAFSCGVLEECSNERIIESTLSLLDSRELRHEVGRRACATVDGYGATRIATKIVEKLERMHSSHGLEHHHHHH”: “not soluble”.
Next, “MVKHIWDSERAAQLPKGVEELVYRSNLIGSDRTVCNWGGGNTSMKTTEKDFRGREIEVMWVKGSGSDLATMKAHNFSGLKLDDIRPLIKRDQMPDEEMVDYLSHCMIDSKHPRPSIETLLHAFLPYKHVDHTHPDAIISICCADNGKQIAEDIYGNRFVWVPYVRPGFTLSKMIAEGVANNPHAELVLMEKHGLVTWGETSETCYQKTISIIQEAEQYINDRINQHEVFGGKRYQPLPEDKRKQILAGIMPVIRGAVSEEKKMILSYDDHDDVLEFVNSVQAPALSQIGAACPDHLVHTKRVPLYIDWNPETQDVHKLADLIKSGVETFTSEYQAYFTRNQQDGDQIFESAPRVILIPGIGMVNTGKSYAMSKVSGALYRRAIAVMKGATALGQFVSLHENESYHVEYWPLELYKLTLAPPEAEFSRKVALITGGAGGIGSAACRRFAAEGGHVIVADLNIEGAQKIAGEINDAYGKGRAMAVKMDVTKEEDVQSAFERAALAYGGIDIVVNNAGLATSSPFDETSLKEWNLNMNVLGTGYFLVAREAFKQMKHQNRGGSMVFVGSKNSVYAGKNASAYSSVKALETHLARCIAAEGGEFGIRVNSVLPDAVLQGSAIWGSSWREERAAAYGIEPDQLEEHYRKRTALLVNIYPEDIAEAIAFFASSKAEKTTGCMITVDGGVPAAFTR”: “not soluble”; “MKTTPDILDQIRVHGADAYPEEGCGFLLGTVTDDGDNRVAALHRATNRRSEQRTRRYELTADDYRAADAAAQEQGLDVVGVYHSHPDHPARPSATDLEEATFPGFTYVIVSVRDGAPEALTAWALAPDRSEFHREDIVRPDPEAPLEHHHHHH”: “soluble”; “GSSGSSGVSSQETQGGPLAPMTGTIEKVFVKAGDKVKAGDSLMVMIAMKMEHTIKSPKDGTVKKVFYREGAQANRHTPLVEFEEEESDKRESESGPSSG”: “soluble”.
On to “GMPIIIDKDLPARKVLQEENIFVMTKERAETQDIRALKIAILNLMPTKQETEAQLLRLIGNTPLQLDVHLLHMESHLSRNVAQEHLTSFYKTFRDIENEKFDGLIITGAPVETLSFEEVDYWEELKRIMEYSKTNVTSTLHICWGAQAGLYHHYGVQKYPLKEKMFGVFEHEVREQHVKLLQGFDELFFAPHSRHTEVRESDIREVKELTLLANSEEAGVHLVIGQEGRQVFALGHSEYSCDTLKQEYERDRDKGLNIDVPKNYFKHDNPNEKPLVRWRSHGNLLFSNWLNYYVYQETPYVL”, for which the “soluble on expression in E. coli” value is listed as “soluble”.
Next, “MALAMNRSITAITVTHNSAHTVRGALARLPPGVEIVCVDNASTDDLSTALSDLAVHRIDNPVNLGFGRACNIGAAAATGEYLLFINPDVRLGTDAVDALLQAAERYPNCGVFVPRTNTVDGRLWFREESEIDRLSGVSLPTRIRQVWGDCCVRFVNGGVFMIKRTLFLDTGGFDEDIFLYFEDDDLSYRLLQRDEPMILVSGAHAVHDIGTSVAQSTRSRIFRYRSKMRSEIHLRKKYGIAYSPFVDILRYSTKIGFYCLTLNRNRLINSLGRLIGIFDSILDRSRANRNGGYVALEHHHHHH”: “not soluble”.
With “MSLRDQFQLAIRVADLLQHITQMKRGQGYGFKEEYEALPEGQTASWDTAKEDENRNKNRYGNIISYDHSRVRLLVLDGDPHSDYINANYIDGYHRPRHYIATQGPMQETVKDFWRMIWQENSASIVMVTNLVEVGRVKCVRYWPDDTEVYGDIKVTLIETEPLAEYVIRTFTVQKKGYHEIRELRLFHFTSWPDHGVPCYATGLLGFVRQVKFLNPPEAGPIVVHCSAGAGRTGCFIAIDTMLDMAENERVVDIFNCVRELRAQRVNLVQTEEQYVFVHDAILEACLCGNTAIPVCEFRSLYYNISRLDPQTNSSQIKDEFQTLNIVTPRVRPEDCSIGLLPRNHDKNRSMDVLPLDRCLPFLISVDGESSNYINAALMDSHKQPAAFVVTQHPLPNTVADFWRLVFDYNCSSVVMLNEMDTAQFCMQYWPEKTSGCYGPIQVEFVSADIDEDIIHRIFRICNMARPQDGYRIVQHLQYIGWPAYRDTPPSKRSLLKVVRRLEKWQEQYDGREGRTVVHCLNGGGRSGTFCAICSVCEMIQQQNIIDVFHIVKTLRNNKSNMVETLEQYKFVYEVALEYLSSFEGHHHHHH”, the “soluble on expression in E. coli” value was “soluble”.
On to “MIFVLDVGNTNAVLGVFEEGELRQHWRMETDRHKTEDEYGMLVKQLLEHEGLSFEDVKGIIVSSVVPPIMFALERMCEKYFKIKPLVVGPGIKTGLNIKYENPREVGADRIVNAVAGIHLYGSPLIIVDFGTATTYCYINEEKHYMGGVITPGIMISAEALYSRAAKLPRIEITKPSSVVGKNTVSAMQSGILYGYVGQVEGIVKRMKEEARQEPKVIATGGLAKLISEESNVIDIVDPFLTLKGLYMLYERNANLQHEKGE”, for which the “soluble on expression in E. coli” value was “not soluble”.
Turning to “MGWPVISGDYIVGDPKSPVAVVTLASDYQSLNLKNYAICGTCFTENFGIEKVIVNVLSNPRISCLVVCGQESDHFAGQSLLALAENGVSAFGGSKRIIGSEGVIPYLDDIPATAISRFLREIEVIDLVGTTDPAVIQQAIDSCSGKERGEAPELSMPEINEHSWKKYEPEVKKNIMSKIKK”, the “soluble on expression in E. coli” value is recorded as “not soluble”.
Regarding “MAVIKQDDLIQSVADALQFISYYHPVDFIQAMHEAYLREESPAARDSMAQILINSRMCATGHRPICQDTGIVTVFVRVGMDVRWDGATMSVDDMINEGVRRAYNLPENVLRASILADPAGARKNTKDNTPAVIHYSIVPGDKVEVDVAAKGGGSENKSKMAMLNPSDSIVDWVLKTVPTMGAGWCPPGMLGIGIGGTAEKAAVMAKEVLMDPIDIHELKARGPQNRIEELRLELFEKVNQLGIGAQGLGGLTTVLDVKIMDYPTHAASLPVCMIPNCAATRHAHFVLDGSGPAELEAPSLDAYPEIVWEAGPSARRVDLDKITPEEVQSWKPGETLLLNGKMLTGRDAAHKRMVDMLNKGETLPVDLKGRFIYYVGPVDPVGDEVVGPAGPTTATRMDKFTRQILEQTGLLGMIGKSERGPIAIEAIKDNKAVYLMAVGGAAYLVAQAIKKSKVLAFAELGMEAIYEFEVKDMPVTVAVDTNGESVHITGPAVWQ”, the “soluble on expression in E. coli” value is “not soluble”.
Next, “MSMLLGDHPELRSRAREIASLAARVVEQVNSMPAGEQKRLLSEQYPELARFEEQREKGDKGLPPLPGAVEGRVKLRFAPNPDFVIHMGNARPAIVNHEYARMYKGRMVLRFEDTDPRTKTPLREAYDLIRQDLKWLGVSWDEEYIQSLRMEVFYSVARRAIERGCAYVDNCGREGKELLSRGEYCPTRDLGPEDNLELFEKMLEGEFYEGEAVVRMKTDPRHPNPSLRDWVAMRIIDTEKHPHPLVGSRYLVWPTYNFAVSVDDHMMEITHVLRGKEHQLNTEKQLAVYRCMGWRPPYFIHFGRLKLEGFILSKSKIRKLLEERPGEFMGYDDPRFGTIAGLRRRGVLAEAIRQIILEVGVKPTDATISWANLAAANRKLLDERADRIMYVEDPVEMEVELAQVECRAAEIPFHPSRPQRKRRITLCTGDKVLLTREDAVEGRQLRLMGLSNFTVSQGILREVDPSLEYARRMKLPIVQWVKKGGEASVEVLEPVELELRRHQGYAEDAIRGYGVDSRLQFVRYGFVRVDSVEDGVYRVIYTHK”: “soluble”; “MGSDKIHHHHHHMQIYLANPRGFCAGVDRAIAIVNEALLRFEPPIYVRHEVVHNKFVVSDLANRGAVFVEELHEVPDGSIVIFSAHGVSKAVEDEAERRDLTVFDATCPLVTKVHIEVAKFAQDGMDAVLIGHAGHPEVEGTMGRFNHRHGGRIHLVENESDVEALSVQDAERLAFVTQTTLSMDDTARVIDALREKFPHIQGPRKDDICYATQNRQDAVKHLASRCEVVLVVGSPNSSNSNRLRELAERMNCRAYLIDNATEMDINWFDGIQSVGVTAGASAPEVLIQEVLQQLQDWGGDLPSELSGIEENVTFSLPKALRIPMTQVGK”: “not soluble”; “MSWLRTELWTAEVVYTGFGTPMLRGALAVQGGFVVGQGSLEELRARFPEGEVVHKGLALLPPPVNAHTHLDLSLLPLYRGPFAGFLSHVVAHRERRGLEGAKRGLEELLASGVGAFADIVFKDEVMDFLLQESPLPGVAFYEVFAPEPSLAEEVYRAVRRKVEAWRRREGKVKVGLSPHAPYSVSPPLLKRLAEWARAEGLPLMVHAAESPEEVAFLLRGEGPLREVYGRFAKTPWTPPGTTPVRHLHALGVLGPTTLLVHGVQVDEEEVGLLAETGTKVVLCPRSNRNLEVGEAPLALYAKHGVELALGTDSRGSSPDLDVKNEARFLWGRAEPRLLVRALTRGGYRALGLPTPRLTRGTPLSLVHFL”: “soluble”.
As for “ASTTTPTLRLNWLQPPFNNQKVRQALLHAVSQRDYMDAQVGDPKAYRVCWAMFGCDSPLASTAGVVSQDDEADLNAAKALLKESGYKNEKAVVLHATDYPPTSAIAPFTAQILRSIGMKAEVQSMDWATFLTRRGKQDPVEKGGWSVAYGSWNTLDLMSPIANLNLDGRGKEGYAGWTESAEMESLRTQYAQATEPASRQQIAAKIQQLAYDQVFYIPLGTY”, the “soluble on expression in E. coli” value was “not soluble”.
As to “MGHHHHHHSHMPPYPANSVFCKDKVSLCCQVGPDFLGSSAPFSASHSAGITGMSHYAQPVFCSLNKGRTVW”, the “soluble on expression in E. coli” value is given as “not soluble”.
